From patent publication US20210032308A1 (published 2021)

Target: T1, recombinant human CD2 (biotinylated) (human, UniProt P06729 25-209, biotinylated (site not stated))
T1 construct: also called hCD2-biotin; human recombinant CD2
T1 sequence: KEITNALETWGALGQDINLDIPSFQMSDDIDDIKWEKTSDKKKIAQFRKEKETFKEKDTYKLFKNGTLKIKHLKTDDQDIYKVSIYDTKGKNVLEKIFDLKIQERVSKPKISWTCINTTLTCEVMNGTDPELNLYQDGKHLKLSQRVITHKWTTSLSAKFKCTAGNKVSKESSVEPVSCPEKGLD
Assay: flow cytometry on LFA3-displaying yeast

B1: N-terminal Ig-domain of human LFA3 (Residues 1-93) displayed on the surface of S. cerevisiae (ligand, not shown: small tags and cut ends; large carriers)
chain: FSQQIYGVVYGNVTFHVPSNVPLKEVLWKKQKDKVAELENSEFRAFSSFKNRVYLDTVSGSLTIYNLTSSDEDEYEMESPNITDTMKFFLYVL
  binding result: binds
